# Biological target: soluble recombinant FcγRIIIB (sFcγRIIIB) (UniProt O75015)
# Test: SPR, comparison of SAP and CRP affinities
# Chain of soluble recombinant FcγRIIIB (sFcγRIIIB) (O75015 17-200): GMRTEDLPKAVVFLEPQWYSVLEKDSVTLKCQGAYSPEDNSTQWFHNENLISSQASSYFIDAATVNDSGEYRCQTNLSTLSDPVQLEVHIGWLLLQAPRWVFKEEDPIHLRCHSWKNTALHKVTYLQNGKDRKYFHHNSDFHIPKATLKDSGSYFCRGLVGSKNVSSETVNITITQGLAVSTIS
substance,measurement,value
serum amyloid P (SAP) (from UniProt P02743 20-223) (ligand; other documents disagree on this pair),fold affinity of SAP over CRP for the same receptor,1000 fold

# Reference: patent US20090202520A1
